Reference: the supplement of paper PMC10567573
± gives the standard deviation.

Test: protein stability index of a GFP-peptide fusion (GPS, HEK-293T) (PSI 1-6); higher = more stable
[1] = treatment: DMSO, c terminus: a fixed tail appended
[2] = treatment: MLN4924 1 uM, 8 h, c terminus: a fixed tail appended
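Further: 24-mer peptide tiles fused after GFP, lentivirally expressed, FACS-sorted into six equal bins by GFP/DsRed ratio, decoded by Illumina sequencing, PSI is the read-weighted mean bin number.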

Row | Sequence | protein stability index [1] | protein stability index [2] | protein stability index (treatment: DMSO, c terminus: native) | protein stability index (treatment: MLN4924 1 uM, 8 h, c terminus: native)
1 | LSRVKAAALSERGQAEEELIKAKS [LRRC45] | 5.01 ± 0.19 | 4.97 ± 0.061 | – | –
2 | DPRYNKWMQVASLNEKRTFFHLSA [KLHL13] | 2.36 ± 0.32 | 2.12 ± 0.13 | – | –
3 | YILECDHHGGDYKHWREWGSHAQT [CRYBA1] | 2.32 ± 0.15 | 2.43 ± 0.51 | – | –
4 | GQQDLFRVLKAYTLYRPEEGYCQA [TBC1D10A] | 2.03 ± 0.37 | 2.16 ± 0.31 | – | –
5 | SPPLHANTSLHVFVLDENDNAPAV [PCDHGC5] | 3.94 ± 0.23 | 3.81 ± 0.45 | – | –
6 | ELYGLALRFFKEKDGKAFHPTYEE [ACBD3] | 2.13 ± 0.26 | 2.19 ± 0.35 | – | –
7 | IYRFLKLHPRGKNNFSPLHLAVDK [FEM1C] | 2.31 ± 0.45 | 2.25 ± 0.28 | – | –
8 | AYVAMIPQCIKEEDTPSDNDSGIC [ATF4] | 4.25 ± 0.41 | 4.46 ± 0.26 | – | –
9 | KYWCVTATRVAPERLFGSAANVVS [ZBED1] | 2.25 ± 0.34 | 2.38 ± 0.28 | – | –
10 | NKIKVMHKQLLLFHNAVSAYFAGN [ARFIP2] | 2.55 ± 0.64 | 2.34 ± 0.24 | – | –
11 | NEWRRPIIQFVESGDDKNSNYFSM [TRIM29] | 3 ± 0.3 | 3.12 ± 0.34 | – | –
12 | QLTNTSGTVIGVTSCIVIILIIIS [NETO1] | 2.43 ± 0.27 | 2.43 ± 0.28 | – | –
13 | KNKKKKLKKKQKRQAELLEKRLQE [SRPK2] | 5.15 ± 0.42 | 5.06 ± 0.48 | – | –
14 | PPDLGAQRRHGWNPKDCSENIEVK [SPSB2] | 4.84 ± 0.29 | 5.03 ± 0.14 | – | –
15 | SRKIAVEDENDLEELNNGEPQTEH [MIA2] | 5.61 ± 0.13 | 5.37 ± 0.29 | – | –
16 | SYFSGQGSDTGASLKLASSELERL [JUNB] | 4.182 ± 0.04 | 4.427 ± 0.038 | – | –
17 | NCHIGGSFSEETEKKFEHFSGLLN [LOXL2] | 3.02 ± 0.27 | 3.44 ± 0.32 | – | –
18 | NLARQWNNCAFLESSAKSKINVNE [RAP1B] | 2.93 ± 0.33 | 2.75 ± 0.19 | – | –
19 | HDGKNQPSKTYPAFLEPDETFIVP [SPSB1] | 4.28 ± 0.19 | 4.25 ± 0.39 | – | –
20 | QNCLWTLRNLSDAATKQEGMEGLL [CTNNB1] | 3.23 ± 0.28 | 3.04 ± 0.18 | – | –
21 | SLIPLILDLMKEWIAHSEKLPRKV [SPACA9] | 2.28 ± 0.46 | 2.02 ± 0.36 | – | –
22 | DRGKDSVEILMILFAFMLVYPKEF [PPEF2] | 2.97 ± 0.19 | 2.71 ± 0.61 | – | –
23 | LGVLHPNTKLRQAERLFENQLVGP [APMAP] | 2.57 ± 0.32 | 3.16 ± 0.24 | – | –

Row | Sequence | protein stability index [1] | protein stability index [2] | protein stability index (treatment: DMSO, c terminus: native) | protein stability index (treatment: MLN4924 1 uM, 8 h, c terminus: native)
24 | FQCNQCGASFTQKGNLLRHIKLHS [IKZF1] | 4.56 ± 0.16 | 4.4 ± 0.76 | – | –
25 | PAPTPTPPGRLGAPYSEAWGYFHL [ZBED3] | 2.37 ± 0.27 | 2.23 ± 0.6 | – | –
26 | QVQSLITNVESQLAEIRSDLERQN [KRT33B] | 3.85 ± 0.22 | 3.91 ± 0.1 | – | –
27 | DCTETIEGLELTEQTFSPAKSLSF [ADD1] | 4.16 ± 0.36 | 4.21 ± 0.26 | – | –
28 | RFYYQALSVAPQIGMPFNQLGTLA [SMG5] | 2.63 ± 0.6 | 2.55 ± 0.61 | – | –
29 | PQKASPNGSISSAGNSSRNSSQSS [BTBD10] | 5.04 ± 0.24 | 4.96 ± 0.13 | – | –
30 | QTWKLFSSHMNIDITDDCICDLAR [PPEF2] | 2.25 ± 0.35 | 2.06 ± 0.32 | – | –
31 | AIHVLGPIDFEESRFYEIHARARD [PCDHGC5] | 2.64 ± 0.45 | 3.01 ± 0.095 | – | –
32 | ASFDRRGEYIYTGNAKGKILVLKT [RBBP5] | 2.02 ± 0.19 | 2.29 ± 0.32 | – | –
33 | VRQPILQYRWDMMHRLGEPQARMR [BEX1] | 2.95 ± 0.21 | 3.22 ± 0.29 | – | –
34 | PGGRPEVIYNYVQRPFIRMSWEKE [BTBD10] | 3.06 ± 0.41 | 3.21 ± 0.43 | – | –
35 | QRAKCKDPQLEIAYRGNCKDVSRC [SMOC2] | 3.85 ± 0.21 | 4 ± 0.14 | – | –
36 | EQARAYAEKNCMTFFEVSPLCNFN [RAB40C] | 2.49 ± 0.31 | 2.38 ± 0.15 | – | –
37 | AISDQLLGAGSDLKDFTLNETVNS [ADAMTSL2] | 4.32 ± 0.21 | 4.8 ± 0.42 | – | –
38 | VLSSEQEFQMFPKSRLSSVSVTYC [ETS2] | 2.21 ± 0.28 | 2.23 ± 0.3 | – | –
39 | PAPEAAHTTGPTGSAPNSPMALLT [TFE3] | 4.67 ± 0.12 | 4.67 ± 0.16 | – | –
40 | AAQMMDIWVPIKIGALTYFAQADA [ACSBG2] | 2.28 ± 0.69 | 2.85 ± 0.49 | – | –
41 | GGKKDKARYIDTHNRVSKEDEDIY [PLK2] | 4.37 ± 0.27 | 4.73 ± 0.4 | – | –
42 | FKKTAYELLDEKLLARGTMQPFNY [FEM1A] | 2.37 ± 0.46 | 2.61 ± 0.17 | – | –
43 | REVFNEIYPVWTYSYLVLLFPVFL [SLC19A2] | 2.71 ± 0.61 | 2.62 ± 0.21 | – | –
44 | QYHHSKIRNRGYNLIYRSTRHLKR [TMEM192] | 3.07 ± 0.25 | 2.98 ± 0.091 | – | –
45 | FLRSLRQMKQKVQSLYQEVFGRLR [NFE2L1] | 2.41 ± 0.59 | 1.7 ± 0.43 | – | –
46 | VIPECAHGGLYKPVQCHPSTGYCW [SMOC2] | 2.38 ± 0.56 | 2.77 ± 0.9 | – | –

Row | Sequence | protein stability index [1] | protein stability index [2] | protein stability index (treatment: DMSO, c terminus: native) | protein stability index (treatment: MLN4924 1 uM, 8 h, c terminus: native)
47 | QQERNDTNFHGVCMFCNEEFLGNR [ZNF277] | 2.96 ± 0.34 | 2.99 ± 0.6 | – | –
48 | SQLRLVCKRMDLVCQRMLNQGFLK [FBXO28] | 2.38 ± 0.42 | 2.46 ± 0.2 | – | –
49 | AAPRTLAAHPPLPLLPPAMGTEPA [TBX6] | 4.61 ± 0.43 | 4.57 ± 0.29 | – | –
50 | EIFRRHFRQLCYQETPGPREALTR [ZSCAN9] | 2.51 ± 0.17 | 2.76 ± 0.24 | – | –
51 | HICTNYNSVCSKFRKEIKSKSADN [RHOBTB1] | 3.37 ± 0.21 | 3.54 ± 0.15 | – | –
52 | QQDDSDEYDDDDSAASTSFQPQPV [ZNF207] | 5.4 ± 0.18 | 5.37 ± 0.18 | – | –
53 | KVEFTEEEIKTWGTVFQELNKLYP [TPH1] | 2.77 ± 0.24 | 2.91 ± 0.34 | – | –
54 | YYIRYRGAVYADSGNFERCIRLWK [FEM1A] | 2.59 ± 0.35 | 2.5 ± 0.57 | – | –
55 | LEQEQEFQVNKLMKKIKKLENDTI [CCDC6] | 4.31 ± 0.6 | 4.19 ± 0.58 | – | –
56 | SHLQAAAQTPPRPGPPSAPPPPPK [SCNN1D] | 5.09 ± 0.26 | 5.22 ± 0.14 | – | –
57 | MSRRTRCEDLDELHYQDTDSDVPE [MYBL2] | 5.33 ± 0.2 | 5.59 ± 0.2 | – | –
58 | LVQHGVKPQEIVQVEIFSTNPDLY [IQUB] | 2.15 ± 0.21 | 2.32 ± 0.33 | – | –
59 | MEADSPAGPGAPEPLAEGAAAEFS [SLC35F2] | 5.5 ± 0.27 | 5.48 ± 0.29 | – | –
60 | LDEFARENIDSLYNVNLSKGRAAL [SCNN1D] | 3.82 ± 0.17 | 3.85 ± 0.31 | – | –
61 | MSTNTVGLGLPMSRSQNTDMVQKS [CLINT1] | 4.59 ± 0.13 | 4.7 ± 0.28 | – | –
62 | SLSFEDELVYADDYIMDEDQSKLA [ESRRG] | 5.43 ± 0.31 | 5.41 ± 0.27 | – | –
63 | LPKLYLPTGPRRGRDELGGGRRPG [CDKN1A] | 4.05 ± 0.63 | 4.35 ± 0.38 | – | –
64 | NGNEEDNHLPPQTKRSSRNPVFQD [FAM104A] | 5.16 ± 0.29 | 5.26 ± 0.2 | – | –
65 | DGAPALCPSPEALSPEPPVYSLQD [PRKX] | 5.37 ± 0.098 | 5.21 ± 0.15 | – | –
66 | WVKGSVPPPLDQYVKFDAVSGDYY [CLPTM1] | 2.79 ± 0.24 | 2.72 ± 0.28 | – | –
67 | RYPVCKFPSLQVTAILIECGADVN [FEM1C] | 2.71 ± 0.72 | 2.65 ± 0.61 | – | –
68 | ALVCLLSCLLPSSEAKLYGRCELA [SPACA3] | 3.18 ± 0.42 | 3.04 ± 0.36 | – | –
69 | SELQKELKKVKTAHSNDGDCKTQ [DPCD] | – | – | 4.94 ± 0.27 | 5.28 ± 0.14

Row | Sequence | protein stability index [1] | protein stability index [2] | protein stability index (treatment: DMSO, c terminus: native) | protein stability index (treatment: MLN4924 1 uM, 8 h, c terminus: native)
70 | SSVTAAVSGLLVGYELGIISGALL [SLC2A12] | 2.8 ± 0.2 | 2.82 ± 0.18 | – | –
71 | MALRGPAGLGPGSRRPLDEAVAGA [DENND6A] | 4.12 ± 0.42 | 4.53 ± 0.19 | – | –
72 | QKRSRAIHSSDEGEDQAGDEDEDD [WAS] | 5.69 ± 0.21 | 5.57 ± 0.24 | – | –
73 | ERRELAVEQGERALERRRRALQEE [ZBED3] | 5.34 ± 0.17 | 5.39 ± 0.31 | – | –
74 | LLDVKTRLEQEIATYRRLLEGEDA [KRT16] | 4.24 ± 0.15 | 4.2 ± 0.35 | – | –
75 | SLSHSPGCSSTQGNGRPGRPSQYR [LCOR] | 4.44 ± 0.13 | 4.67 ± 0.22 | – | –
76 | CGKAFYKKYRLTEHERAHRGEKPH [ZNF649] | 3.03 ± 0.33 | 3.18 ± 0.18 | – | –
77 | PVCYQCLEEGKHSSHEVKALGAMW [TRIM9] | 2.64 ± 0.35 | 2.76 ± 0.32 | – | –
78 | MEEEDPMPRQISRQSSVTESTLYP [TPRG1] | 5.1 ± 0.32 | 5.26 ± 0.34 | – | –
79 | TLVGNVAQDLGLKMTDLLSRRLQL [PCDHGC5] | 2.58 ± 0.66 | 2.6 ± 0.57 | – | –
80 | QCQEAEQARAELTAQHQRRLAAIA [FBF1] | 4.34 ± 0.05 | 4.28 ± 0.15 | – | –
81 | KPGRKTNQLQYMQNVVVKTLWKHQ [BRD3] | 2.25 ± 0.2 | 2.62 ± 0.21 | – | –
82 | DPALRRRRRGPRNKKRGWRRLAQE [NOP53] | 4.73 ± 0.3 | 4.92 ± 0.24 | – | –
83 | ATIENAQPILQIDNARLAADDFRT [KRT16] | 4.41 ± 0.17 | 4.52 ± 0.16 | – | –
84 | AKGGFSGCSAVLSGGSSSSFRAGS [KRT71] | 3.17 ± 0.13 | 3.17 ± 0.24 | – | –
85 | ELSLVTLFRCIQNMPETLPNNSCY [TNFSF13B] | 3.65 ± 1.3 | 2.94 ± 0.5 | – | –
86 | RPSSPRPQKASPNGSISSAGNSSR [BTBD10] | 4.97 ± 0.21 | 4.94 ± 0.3 | – | –
87 | FSVLEGEKNNHRAKDLRAPPEQGK [SOAT1] | 5.08 ± 0.26 | 4.92 ± 0.18 | – | –
88 | KGFGFVTMTNYDEAAMAIASLNGY [ELAVL3] | 2.34 ± 0.13 | 2.37 ± 0.1 | – | –
89 | PSLYSSYHQGCLVNPTGNLPMWSN [NANOGP8] | 2.39 ± 0.073 | 2.37 ± 0.096 | – | –
